Test results reported in patent US20230265215A1 (OMEROS, published 2023).
Positions count from the first letter of the chain named. Several values for one entry are separate records, joined by “and”; a condition that tells them apart may be missing. Equal entries are not always repeated.

Experiments:
[1] = biological target: T1, human MASP-2 (endogenous, in normal human serum) (human, UniProt O00187 16-686); assay: cell-based or functional assay
[2] = biological target: cynomolgus monkey MASP-2 (endogenous, in cynomolgus monkey serum) (cynomolgus monkey, UniProt O00187 16-686 (human entry), limits assumed); assay: cell-based or functional assay
[3] = biological target: rat MASP-2 (endogenous, in rat serum) (rat, UniProt Q9JJS8 20-685); assay: cell-based or functional assay
[4] = biological target: mouse MASP-2 (endogenous, in mouse serum or hirudin plasma) (mouse, UniProt Q91WP0 20-685); assay: cell-based or functional assay
[5] = biological target: T1, human MASP-2 (endogenous, in normal …); assay: cell-based or functional assay; remark: listed apart in the source
[6] = biological target: T1, human MASP-2 (endogenous, in normal …); assay: cell-based or functional assay; remark: listed apart in the source
[7] = biological target: T1, human MASP-2 (endogenous, in normal …); assay: cell-based or functional assay; remark: listed apart in the source
[8] = biological target: T2, human MASP-2 (CCP1-CCP2-SP fragment) (human, UniProt O00187 287-686, limits assumed); assay: solid phase ELISA, plate coated with human MASP-2 CCP1-CCP2-SP fragment
T2 construct: also called human MASP-2 (CCP1/2/SP fragment); hMASP-2-CCP1-CCP2-SP
Description: To measure binding of the 26 purified recombinant MASP-2 antibodies to human MASP-2 (CCP1-CCP2-SP fragment), a solid phase ELISA assay was carried out as follows. A MaxiSorp ELISA plate was coated with human MASP-2 (CCP1/2/SP fragment) at 1.0 μg/mL in carbonate/bi-carbonate buffer overnight at 4° C. […] The plate was washed (PBS-T, 0.05%) and a detection antibody was added (goat anti-human IgG-HRP) for one hour at room temperature. After another wash (PBS-T, 0.05%) the plate was developed (5 minutes) with OPT EIA TMB (BD Biosciences #555214). Absorbance reading at A450 was measured using the Spectramax M5e plate reader.
A solid phase ELISA assay was carried out to measure binding of the three selected MASP-2 inhibitory antibodies to human MASP-2 (CCP1-CCP2-SP fragment), as described in Example 1.

Chain of rat MASP-2 (endogenous, in rat serum) (Q9JJS8 other isoform, or with tags, fused parts or gaps limits assumed): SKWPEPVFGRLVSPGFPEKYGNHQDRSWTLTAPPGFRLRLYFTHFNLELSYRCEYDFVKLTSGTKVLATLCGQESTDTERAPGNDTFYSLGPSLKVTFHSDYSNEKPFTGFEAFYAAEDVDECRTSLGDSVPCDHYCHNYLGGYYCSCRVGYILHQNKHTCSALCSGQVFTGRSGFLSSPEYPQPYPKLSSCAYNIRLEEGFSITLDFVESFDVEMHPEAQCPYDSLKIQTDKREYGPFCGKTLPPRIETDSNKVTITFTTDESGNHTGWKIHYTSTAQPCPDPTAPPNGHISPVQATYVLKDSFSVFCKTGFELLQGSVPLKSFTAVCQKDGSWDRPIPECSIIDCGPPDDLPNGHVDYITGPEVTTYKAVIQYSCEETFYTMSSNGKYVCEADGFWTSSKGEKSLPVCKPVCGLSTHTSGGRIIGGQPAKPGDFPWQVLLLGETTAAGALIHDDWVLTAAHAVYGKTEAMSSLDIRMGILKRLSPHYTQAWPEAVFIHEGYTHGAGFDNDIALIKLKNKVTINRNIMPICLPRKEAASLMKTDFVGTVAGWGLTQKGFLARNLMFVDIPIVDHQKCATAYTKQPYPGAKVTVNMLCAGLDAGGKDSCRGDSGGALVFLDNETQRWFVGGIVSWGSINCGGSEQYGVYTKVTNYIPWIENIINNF
Chain of mouse MASP-2 (endogenous, in mouse serum or hirudin plasma) (Q91WP0 20-685 limits assumed): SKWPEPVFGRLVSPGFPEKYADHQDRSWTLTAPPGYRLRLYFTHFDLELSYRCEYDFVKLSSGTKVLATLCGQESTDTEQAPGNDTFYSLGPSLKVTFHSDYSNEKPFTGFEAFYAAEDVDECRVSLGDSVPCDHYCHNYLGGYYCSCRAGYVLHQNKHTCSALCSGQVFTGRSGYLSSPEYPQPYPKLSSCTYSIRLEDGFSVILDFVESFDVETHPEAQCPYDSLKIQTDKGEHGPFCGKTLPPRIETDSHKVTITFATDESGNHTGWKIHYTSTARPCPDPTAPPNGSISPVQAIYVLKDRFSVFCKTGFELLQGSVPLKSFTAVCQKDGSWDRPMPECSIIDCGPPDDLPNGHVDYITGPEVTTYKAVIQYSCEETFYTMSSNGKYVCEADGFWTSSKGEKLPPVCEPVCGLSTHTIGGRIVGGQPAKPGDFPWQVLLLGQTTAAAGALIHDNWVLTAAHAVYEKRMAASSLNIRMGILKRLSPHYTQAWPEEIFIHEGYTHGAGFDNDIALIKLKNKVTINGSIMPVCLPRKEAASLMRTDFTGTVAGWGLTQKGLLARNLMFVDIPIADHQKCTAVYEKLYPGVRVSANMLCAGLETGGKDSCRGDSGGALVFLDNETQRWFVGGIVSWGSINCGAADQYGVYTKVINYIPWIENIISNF
Chain of cynomolgus monkey MASP-2 (endogenous, in cynomolgus monkey serum) (O00187 other isoform, or with tags, fused parts or gaps limits assumed): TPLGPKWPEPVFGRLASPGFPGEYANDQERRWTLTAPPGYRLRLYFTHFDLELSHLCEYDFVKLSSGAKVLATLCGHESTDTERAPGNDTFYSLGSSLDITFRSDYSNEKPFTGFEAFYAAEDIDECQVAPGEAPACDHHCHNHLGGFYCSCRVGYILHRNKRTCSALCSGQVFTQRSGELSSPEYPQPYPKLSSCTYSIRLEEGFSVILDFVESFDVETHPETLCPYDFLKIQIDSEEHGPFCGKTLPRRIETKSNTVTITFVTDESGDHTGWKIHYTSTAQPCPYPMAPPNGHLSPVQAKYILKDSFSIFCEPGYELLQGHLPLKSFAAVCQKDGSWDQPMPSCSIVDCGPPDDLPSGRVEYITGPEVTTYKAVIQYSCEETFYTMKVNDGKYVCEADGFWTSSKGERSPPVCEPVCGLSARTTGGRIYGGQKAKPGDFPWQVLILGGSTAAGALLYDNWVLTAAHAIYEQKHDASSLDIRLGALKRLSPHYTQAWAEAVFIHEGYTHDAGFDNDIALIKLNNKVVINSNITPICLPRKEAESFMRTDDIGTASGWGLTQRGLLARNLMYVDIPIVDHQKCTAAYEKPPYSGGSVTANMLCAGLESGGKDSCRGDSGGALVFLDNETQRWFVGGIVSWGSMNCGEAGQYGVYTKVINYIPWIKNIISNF
T2 sequence (O00187 287-686 limits assumed): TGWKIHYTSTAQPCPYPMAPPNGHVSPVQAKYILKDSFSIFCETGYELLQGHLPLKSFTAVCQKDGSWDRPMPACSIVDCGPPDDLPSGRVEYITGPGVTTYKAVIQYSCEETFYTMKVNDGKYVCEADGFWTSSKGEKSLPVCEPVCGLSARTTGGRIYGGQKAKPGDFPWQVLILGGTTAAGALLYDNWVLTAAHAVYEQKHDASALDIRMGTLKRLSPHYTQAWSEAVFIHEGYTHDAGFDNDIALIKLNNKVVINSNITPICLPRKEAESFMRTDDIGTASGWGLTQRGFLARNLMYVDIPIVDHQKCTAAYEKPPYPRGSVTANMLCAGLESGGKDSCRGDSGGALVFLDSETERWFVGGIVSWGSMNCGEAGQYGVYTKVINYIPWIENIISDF
T1 sequence (O00187 16-686 limits assumed): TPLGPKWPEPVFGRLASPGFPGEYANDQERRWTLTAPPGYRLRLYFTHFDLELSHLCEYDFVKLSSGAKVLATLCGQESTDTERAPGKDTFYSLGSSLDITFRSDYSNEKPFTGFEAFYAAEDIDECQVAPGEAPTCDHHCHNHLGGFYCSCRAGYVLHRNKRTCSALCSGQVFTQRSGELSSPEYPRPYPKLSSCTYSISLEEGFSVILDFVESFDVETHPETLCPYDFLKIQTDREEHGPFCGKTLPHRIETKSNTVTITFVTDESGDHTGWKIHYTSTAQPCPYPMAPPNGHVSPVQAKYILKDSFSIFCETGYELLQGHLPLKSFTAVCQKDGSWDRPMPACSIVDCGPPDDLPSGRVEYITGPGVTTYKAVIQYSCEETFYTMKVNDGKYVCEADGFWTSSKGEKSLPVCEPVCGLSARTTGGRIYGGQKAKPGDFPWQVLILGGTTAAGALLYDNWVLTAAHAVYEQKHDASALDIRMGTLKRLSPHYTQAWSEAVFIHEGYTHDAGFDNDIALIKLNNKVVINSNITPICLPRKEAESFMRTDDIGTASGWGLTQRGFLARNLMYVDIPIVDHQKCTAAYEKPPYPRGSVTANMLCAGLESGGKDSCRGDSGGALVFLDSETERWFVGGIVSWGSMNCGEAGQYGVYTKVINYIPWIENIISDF

B1: mAb OMS850 (mouse-human chimeric, mouse parental variable regions) (antibody, human IgG4 S228P, kappa, V domains shown)
VH: QVQLQQPGAELVRPGSSVRLSCKASGYTFTNYWMHWLKQRPIQGLEWIGDIDPSDSETHYIEKFKDKATLTIDKSSSTAYMHLSSLTSEDSAIYYCARGDITTTLRYFDVWGTGTTVTVSS
VL: QIVLTQSPVIMSASPGEKVTMTCSASSSVRYMYWYQQKPGSSPRLLIYDTSNLASGVPVRFSGSGSGTSNSLTISRMEAEDAATYYCQQWSSYPLTFGAGTKLELKR
notes: also called OMS850 parent
[1]
  C3b deposition on mannan, 1.0% human serum, IC50: 0.15 nM
[2]
  C3b deposition on mannan, 0.25% cynomolgus monkey serum, IC50: 0.4 nM
[3]
  C3b deposition on mannan, 0.3% rat serum, IC50: 0.05 nM
[4]
  C3b deposition on mannan, 1.0% mouse serum, IC50: 0.5 nM
[5]
  C4b deposition on mannan, 50% human serum, IC50: 0.07 µg/mL
[6]
  Human C3b deposition, IC50: 0.09 nM
[7]
  Human C3b deposition, 1% human serum, IC50: 0.15 nM and 0.12 nM
[8]
  EC50: 0.25 nM

B2: OMS850_VH_P53/N (antibody, IgG4, V domains shown)
VH: B1 VH with P53N
VL: B1 VL
[6]
  Human C3b deposition, IC50: 0.53 nM

B3: OMS850_VH_P53/A (antibody, IgG4, V domains shown)
VH: B1 VH with P53A
VL: B1 VL
[6]
  Human C3b deposition, IC50: 0.07 nM

B4: OMS850_VH_P53/D (antibody, IgG4, V domains shown)
VH: B1 VH with P53D
VL: B1 VL
[6]
  Human C3b deposition, IC50: 0.16 nM

B5: mAb OMS860 (mouse-human chimeric, mouse parental variable regions) (antibody, human IgG4 S228P, kappa, V domains shown)
VH: B1 VH with R19K, L37V, K38R, T58I, H59Y, I61N, E62Q, I72V, I93V
VL: B1 VL with M21I, R30S
[1]
  C3b deposition on mannan, 1.0% human serum, IC50: 0.6 nM
[2]
  C3b deposition on mannan, 0.25% cynomolgus monkey serum, IC50: 26.2 nM
[3]
  C3b deposition on mannan, 0.3% rat serum, IC50: 0.3 nM
[4]
  C3b deposition on mannan, 1.0% mouse serum, IC50: 5.8 nM
[5]
  C4b deposition on mannan, 50% human serum, IC50: 0.1 µg/mL
[8]
  EC50: 0.23 nM

B6: OMS854 (monoclonal antibody OMS852 4PA-1) (antibody, V domains shown)
VH: QVQLVQSGAEVKKPGASVKVSCKASGYTFTNYWMHWLRQAPGQGLEWIGDIDASDSETHYIEKFKDRATLTIDKSSSTAYMELSSLRSEDTAVYYCARGDITTTLRYFDVWGQGTLVTVSS
VL: DIQLTQSPSSLSASVGDRVTITCSASSSVRYMYWYQQKPGKAPKLLIYDTSNLASGVPSRFSGSGSGTDNTLTISSLQPEDFATYYCQQWSSYPLTFGQGTKVEIKR
[7]
  Human C3b deposition, 1% human serum, IC50: 0.09 nM

B7: mAb OMS870 (mouse-human chimeric, mouse parental variable regions) (antibody, human IgG4 S228P, kappa, V domains shown)
VH: EVQLQQPGTELVKPGASVKLSCKASGYTFTSYWMHWVKQRPGQGLEWIGNINPSNGGTNCNEKFKNKATMTVDKSSSTAYMQLSSLTSEDSAVYYCARWAYDAMDYWGQGTSVTVSS
VL: DIVLTQSPASLAVSLGQRATISCRASESVDSYGNSFMHWYQQKPGQAPKLLIYFASNLESGVPARFSGSGSRTDFTLTIDPVEADDAATYFCQQSNEDPLTFGAGTKLELKR
[1]
  C3b deposition on mannan, 1.0% human serum, IC50: 0.13 nM
[2]
  C3b deposition on mannan, 0.25% cynomolgus monkey serum, IC50: 18.9 nM
[3]
  C3b deposition on mannan, 0.3% rat serum, IC50: 0.6 nM
[4]
  C3b deposition on mannan, 1.0% mouse serum, IC50: > 100 nM
[5]
  C4b deposition on mannan, 50% human serum, IC50: 0.09 µg/mL
[8]
  EC50: 0.41 nM
